Assay results: patent US12648572B2, “Proteolytically stable U1-agatoxin-Ta1b variant polypeptides for pest control” (Vestaron Corporation, priority 2020, dated 2026)
Where “and” joins values, the source holds several entries; their conditions need not be identical. Equal entries are not always repeated.

What was measured:
[1] = tested on: Manduca Gut Extract (MGE); assay: Manduca Gut Extract (MGE) digest of TVPs; assay type: in vitro ADME, Manduca sexta; conditions: for Fold Stability Improvement: in the presence of MGE, relative to Ta1b; for Half Life (min) Manduca Gut Extract (MGE): 1 mg/mL TVP, 1/10 diluted MGE, 50 mM Tris-HCl pH 8.8; for Fold Change (MGE): half life relative to WT Ta1b
Procedure: (§1) To determine the stability of TVPs when exposed to lepidopteran gut proteases. Briefly, 5th instar Manduca sexta were dissected by making a small incision to the intestinal lining such that gut contents could be collected in a tube. Multiple dissections were pooled and kept on ice for immediate use, or stored at −80° C. for future use. The isolated midgut (referred to hereinafter as Manduca Gut Extract, or MGE) was then for digest assays. Next, 1 mg/mL TVP was incubated with 0.1 mg/mL bovine trypsin, or 1/10 diluted MGE with 50 mM Tris-HCl, pH 8.8 to maintain alkaline pH. Time points were taken and the digest quenched with the addition of 200 mM HCl. Degradation was quantified by HPLC analysis and rates were determined by fit to a single exponential decay.
(§2) TVPs were assessed for stability in the presence of MGE (as described above). Activity was assessed by injection into houseflies (Musca domestica): […] intrathoracically into houseflies with an average mass of 18 mg. The dose required for 50% knockdown and mortality was determined at 24 hour post-injection.

[2] = tested on: houseflies (Musca domestica); assay: Housefly injection assay; assay type: in vivo; conditions: for Activity relative to wild-type Ta1b, in words: housefly injection; for Fold Activity Reduction: housefly intrathoracic injection, 24 hour post-injection, relative to wild-type Ta1b; for Fly KD50: dose for 50% knockdown, 24 hours post-injection
Procedure: as §2
Activity of the TVPs identified in the mutant stability assay were assessed by injection into houseflies (Musca domestica). Wild-type Ta1b and the TVPs with amino acid substitutions at positions R9Q and R9N were injected intrathoracically into houseflies with an average mass of 18 mg, at an injection dose of 0.5 μL of toxin or control. The dose of TVP required for 50% knockdown (KD50) was then determined at 24-hours post-injection. […] FIG. 2.
The TVPs: (1) TVP-R9Q; (2) TVP-R9QΔG; (3) TVP-R9Q/T43A/ΔG; (4) TVP-R9Q/T43A; and (5) TVP-R9Q/T43A/ΔK-G, were analyzed in a housefly injection assay. Housefly injections were performed as previously described herein.

bovine trypsin = molecular target: T1, bovine trypsin (Bos taurus, UniProt P00760); assay: Bovine trypsin digest of TVPs; assay type: in vitro ADME; conditions: for Half Life (min) Bovine Trypsin: 1 mg/mL TVP, 0.1 mg/mL bovine trypsin, 50 mM Tris-HCl pH 8.8; for Trypsin digestion, in words: alanine scan of basic amino acids; for Fold Change (Trypsin): half life relative to WT Ta1b
T1 sequence (P00760 24-246): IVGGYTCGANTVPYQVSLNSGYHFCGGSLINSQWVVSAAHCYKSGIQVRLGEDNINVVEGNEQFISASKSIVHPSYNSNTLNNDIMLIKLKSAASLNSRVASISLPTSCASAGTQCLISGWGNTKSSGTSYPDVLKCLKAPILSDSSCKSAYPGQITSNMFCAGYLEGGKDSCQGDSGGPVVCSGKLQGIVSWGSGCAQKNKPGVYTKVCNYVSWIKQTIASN
Procedure: as §1
Lepidopteran gut contains trypsin-like proteases that cut after Arg or Lys amino acids; without wishing to be bound by any particular theory, we hypothesized that singly mutating these amino acids to alanine could identify the site(s) that are causing degradation in lepidopteran gut. To test the foregoing hypothesis, TVPs were created by individually mutating each basic amino acid to alanine present in the wild-type Ta1b amino acid sequence. Next, the stability of each of these TVPs was assessed by confronting the TVPs with the digestion conditions as described above.

[3] = tested on: neonate corn earworm (Helicoverpa zea); assay: Corn earworm oral foliar bioassay; assay type: in vivo; conditions: sprayed lettuce leaf discs, fourth day, ± standard error of the mean
Procedure: In the oral foliar bioassay, the experimental unit consisted of 12 leaf discs (per peptide concentration) sprayed (front and back) with a total spray volume of 5.5 mL (2.75 mL for each side) on which neonate corn earworm (Helicoverpa zea) were allowed to feed. There were four experimental replicates per peptide.
Romaine lettuce was cut into 30 mm diameter disks, and then sterilized using a 140 ppm bleach solution; the disks were then triple rinsed in water. The romaine lettuce disks were then pinned to a Styrofoam board and sprayed with a given treatment; the disks were flipped, sprayed again, allowed to dry, and placed in the arena.
The arena was 32-well rearing tray containing 5 mL of 1% agar. One romaine lettuce disk was placed in each well, with a single first instar corn earworm (Helicoverpa zea) per leaf disk. The trays were then placed in a 28° C. Incubator.
Mortality of the corn earworms was evaluated on the fourth day after spraying and larvae application to the leaf discs. Larvae were scored as either alive (moving and feeding normally) or dead (immobile, discolored).

[4] = tested on: Helicoverpa gut extract (HGE); assay: Helicoverpa gut extract (HGE) digest, position 9 scan; assay type: in vitro ADME, Helicoverpa zea; conditions: for Half-Life: 30 mM Tris-HCl pH 8.8, time points 0, 3, 22.5 hours
Procedure: To determine the stability of TVPs when exposed to lepidopteran gut proteases, early fifth instar Helicoverpa zea larvae were dissected to remove the intact digestive tract from other tissues and hemolymph. To obtain the Helicoverpa gut extract (HGE), a small incision was made to the intestinal lining such that gut contents could be collected in a tube. Multiple dissections were pooled and kept on ice for immediate use, or stored at −80° C. for future use.
Wild-type Ta1b (SEQ ID NO: 1) was used as a template, and mutated at amino acid substitution at position 9, (i.e., R9; SEQ ID NO: 1) to produce the TVPs evaluated here; these TVPs have a substitution of the arginine at position 9 (i.e., R9) of the wild-type amino acid sequence (SEQ ID NO: 1), with one of the amino acids F, P, Y, K, W, H, A, G, N, L, D, V, M, I, Q, C, E, T, and S; in addition, a TVP with an R9Q+T43A mutation (relative to wild-type Ta1b) was likewise evaluated (SEQ ID NO: 85).
The TVPs described above and shown in Table 19 were confronted with Helicoverpa gut extract (HGE) to simulate digestion in the lepidopteran gut environment. Here, the TVPs were incubated with 6× diluted amount of HGE obtained from Helicoverpa deep well cell growths. The 6× diluted UGE was supplemented with 30 mM Tris-HCl, pH 8.8, to maintain the alkaline pH of the Helicoverpa gut environment.
Samples of the digested TVPs were collected at time points of 0, 3, and 22.5 hours. To quench the digestion process, 30 mM Glycine, pH 2.0 was added to the samples, and the samples of the digested TVPs were immediately analyzed using reverse-phase HPLC to quantify the TVP peak area.

[5] = tested on: corn earworm (Helicoverpa zea); assay: Corn earworm injection assay; assay type: in vivo; conditions: fourth instar larvae, 24 hours after injection; ± standard error of the mean
Procedure: First, WT Ta1b (WT) and the R9Q mutant of Ta1b (TVP-R9Q) were evaluated in a lepidopteran injection assay. The experimental unit consisted of 8 injected individual corn earworm (Helicoverpa zea) per peptide dose. There were four experimental replicates per peptide. Prior to injection, corn earworm larvae were reared to their fourth instar on standard lepidoptera diet. The larvae were weighed to determine accurate dose calculations. The exact doses varied slightly between replicates because of variations in corn earworm larvae mass, but the approximate doses injected were: 1000, 2000, 4000, and 8000 pmol/g. Injections were performed using a hand microapplicator and a syringe fitted with a 30 gauge needle. Larvae were injected at the base of one of their most posterior prolegs. Larvae were injected with 1 μL of treatment solution.
After injection, larvae were placed in a well of a 32-well tray filled with 5 mL of standard lepidoptera diet. The trays were then placed in a 28° C. Incubator. The condition of the larvae were evaluated 24 hours after injection.

Substance	Fold Stability Improvement [1] [fold]	Activity relative to wild-type Ta1b, in words [2]	Fold Activity Reduction [2]	Half Life (min) Bovine Trypsin (bovine trypsin) [min]	other results
A8N: TVP with substitution A8N (EPDEICRNRMTNKEFTYKSNVCNNCGDQVAACEAECFRNDVYTACHEAQKG; listed as Eratigena agrestis)	1.8				
A8S: TVP with substitution A8S (EPDEICRSRMTNKEFTYKSNVCNNCGDQVAACEAECFRNDVYTACHEAQKG; listed as Eratigena agrestis)	12.1	maintain activity similar to the native Ta1b	1.3 fold		Digestibility by Manduca Gut Extract (MGE), in words [1]: significant reduction in digestibility
EPDEICRAAMTNKEFTYKSNVCNNCGDQVAACEAECFRNDVYTACHEAQKG (TVP-R9A)	247		9 fold and 8.7 fold	>6000	Trypsin digestion, in words (bovine trypsin): completely abolished trypsin digestion; Fold Change (Trypsin) (bovine trypsin): >20 fold; Half Life (min) Manduca Gut Extract (MGE) [1]: 370 min; Fold Change (MGE) [1]: 247 fold
EPDEICRAEMTNKEFTYKSNVCNNCGDQVAACEAECFRNDVYTACHEAQKG (TVP-R9E)			>10 fold		
EPDEICRAHMTNKEFTYKSNVCNNCGDQVAACEAECFRNDVYTACHEAQKG (TVP-R9H)	16.2		2.5 fold		
EPDEICRANMTNKEFTYKSNVCNNCGDQVAACEAECFRNDVYTACHEAQKG (TVP-R9N)	>50	maintain activity similar to the native Ta1b	1.5 fold		Digestibility by Manduca Gut Extract (MGE), in words [1]: significant reduction in digestibility
EPDEICRARMTNKEFTYKSNVCNNCGDQVAACEAECFRNDVYTACHEAQKG (listed as Eratigena agrestis) [WT Ta1b, reference compound]				288	Oral Bioassay % Mortality at 3 ppt [3]: 6 ± 3%; Half-Life ([4]; 6× diluted HGE): 1.9 h; Injection LD50 [5]: 2933 ± 827 pmol/g; Half Life (min) Manduca Gut Extract (MGE) [1]: 1.5 min; Fly KD50 [2]: 167 pmol/g
EPDEICRATMTNKEFTYKSNVCNNCGDQVAACEAECFRNDVYTACHEAQKG (TVP-R9T) [T (Position 9)]					Result (Stable/Unstable) ([4]; 6× diluted HGE): Stable; Half-Life ([4]; 6× diluted HGE): 95.8 h; Gut extract digestion, in words ([4]; 6× diluted gut extract, relative to wild type Ta1b): completely abolished UGE digestion
K18A: TVP: wild-type Ta1b with basic amino acid K18 mutated to alanine (EPDEICRARMTNKEFTYASNVCNNCGDQVAACEAECFRNDVYTACHEAQKG; listed as Eratigena agrestis)				1194	Trypsin digestion, in words (bovine trypsin): modest, albeit significant reduction in digestibility; Fold Change (Trypsin) (bovine trypsin): 4.1 fold
R38A: TVP: wild-type Ta1b with basic amino acid R38 mutated to alanine (EPDEICRARMTNKEFTYKSNVCNNCGDQVAACEAECFANDVYTACHEAQKG; listed as Eratigena agrestis)	8.6	did not show any reduction in activity	1.0 fold	1860	Trypsin digestion, in words (bovine trypsin): modest, albeit significant reduction in digestibility; Fold Change (Trypsin) (bovine trypsin): 6.5 fold; Half Life (min) Manduca Gut Extract (MGE) [1]: 19 min; Fold Change (MGE) [1]: 8.6 fold
T11P: TVP with substitution T11P (EPDEICRARMPNKEFTYKSNVCNNCGDQVAACEAECFRNDVYTACHEAQKG; listed as Eratigena agrestis)	92.9	maintain activity similar to the native Ta1b	1.4 fold		Digestibility by Manduca Gut Extract (MGE), in words [1]: significant reduction in digestibility
TVP-R9Q/ΔG: TVP-R9Q with the C-terminal glycine removed (EPDEICRAQMTNKEFTYKSNVCNNCGDQVAACEAECFRNDVYTACHEAQK; C-terminal Gly deleted; TVP-R9QdG)					Fly KD50 [2]: 136 pmol/g
